Two substances from article PMC2063550 can be followed below.

Where only a bound is given, the exact number is not on record here.

The target in assay [1] is GST-PERK, wild-type PERK kinase domain fused to GST (active, autophosphorylated) (mouse) (UniProt Q9Z2B5). As to the kind of experiment: pull-down.
The target is the same in assay [2].

UniProt Q9Z2B5, sequence (Q9Z2B5 537-1114): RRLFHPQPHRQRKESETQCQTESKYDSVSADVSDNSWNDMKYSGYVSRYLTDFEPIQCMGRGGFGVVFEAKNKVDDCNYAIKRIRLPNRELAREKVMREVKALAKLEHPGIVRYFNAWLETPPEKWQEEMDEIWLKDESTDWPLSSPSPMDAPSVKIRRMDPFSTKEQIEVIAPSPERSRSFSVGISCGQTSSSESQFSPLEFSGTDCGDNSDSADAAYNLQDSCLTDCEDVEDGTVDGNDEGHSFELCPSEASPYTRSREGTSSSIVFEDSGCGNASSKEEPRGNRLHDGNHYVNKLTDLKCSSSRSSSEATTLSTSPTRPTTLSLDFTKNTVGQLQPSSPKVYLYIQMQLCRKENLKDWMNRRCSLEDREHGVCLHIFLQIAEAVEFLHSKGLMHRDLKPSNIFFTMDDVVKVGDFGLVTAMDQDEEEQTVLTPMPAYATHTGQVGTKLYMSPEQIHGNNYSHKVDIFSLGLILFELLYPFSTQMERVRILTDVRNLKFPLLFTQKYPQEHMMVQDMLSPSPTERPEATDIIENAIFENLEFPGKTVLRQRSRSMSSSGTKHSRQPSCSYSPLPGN

In assay [1], “eIF2α-NTD (NH2-terminal domain of eIF2α, residues 1-185, three solubilizing mutations, nonphosphorylated) (domain or fragment)” displayed a KCl concentration at the peak of elution of 225 mM KCl. Moreover, the stoichiometry N (eIF2α-NTD per PERK) in assay [2] was more than 1.

In assay [1], “phosphorylated eIF2α-NTD (P–eIF2α-NTD, phosphorylated by PERK on serine 51) (domain or fragment)” had a KCl concentration at the peak of elution of 125 mM KCl.
